Test results: PMC8301015, “Atypical Bacilliredoxin AbxC Plays a Role in Responding to Oxidative Stress in Radiation-Resistant Bacterium Deinococcus radiodurans” (Antioxidants, 2021)

Target: the molecule itself
Experiment: non-reducing SDS-PAGE; purified AbxC 0.5 mg/mL in PBS, 15 min, without or with increasing concentrations of H2O2 (or oxidised with diamide); 12% gel, non-reducing; disulfide-linked dimer against monomer

B1: AbxC (atypical BrxC; DR_1832), C-terminal His x 6 tag (enzyme, Deinococcus radiodurans, UniProt Q9RTD3 1-211, looked up)
chain: MTQGQDQVLSPLTTPDEVDQFLKDYPLAAVFKAGTCHKTMQGFGVLETFLQRYELPVGFIRVVDWRPASNHVAELTGLTHHSPQFILFKDGQAQYEVNNWDITPEALGPVFEQQVPQRSGAAQVDAGDSVEPYRQLMQAYLAGQLSDWAFQDQYVTMFRDDASLRSQREFELLSRLFGDPDAYHGGLHQLGAPQDRGDLKARVQSVLDQLG
notes: AbxC (DR_1832), Deinococcus radiodurans R1; monomer 23.7 kDa; single cysteine Cys36; also called putative homolog of BrxC (YtxJ); source: E. coli BL21-CodonPlus (DE3)-RP, purified (Ni-NTA, Superdex 75HR)
stoichiometry N: 2
